Test results as given in patent publication US20040214258A1.

Target: hR.Luc-connector-DhaA.H272F-Flag fusion protein with covalently bound biotin-C18H32O4-Cl substrate (Rhodococcus rhodochrous) (UniProt P0A3G2)
Assay: capture on SA-coated 96-well plate through tethered biotin; captured luciferase activity measured

streptavidin (SA) coated on a solid support (from UniProt P22629 37-163)
efficiency of capturing (% of Renilla luciferase activity added to the plate): > 50%
